Measured values published in article PMC4895024 (2016).

Assays:
[1] = target: T1, ProAgio (D1-CD2 variant 3) ( (human and rat D1-CD2 are …, UniProt P06729 25-206)); experiment: SPR
[2] = target: T1, ProAgio (D1-CD2 variant 3); experiment: ELISA; without polyLys

- Kd [1]: 2 nM
- Kd [2]: 35 nM
B1: recombinant integrin αvβ3 (commercial) (receptor)
chain 1: FNLDVDSPAEYSGPEGSYFGFAVDFFVPSASSRMFLLVGAPKANTTQPGIVEGGQVLKCDWSSTRRCQPIEFDATGNRDYAKDDPLEFKSHQWFGASVRSKQDKILACAPLYHWRTEMKQEREPVGTCFLQDGTKTVEYAPCRSQDIDADGQGFCQGGFSIDFTKADRVLLGGPGSFYWQGQLISDQVAEIVSKYDPNVYSIKYNNQLATRTAQAIFDDSYLGYSVAVGDFNGDGIDDFVSGVPRAARTLGMVYIYDGKNMSSLYNFTGEQMAAYFGFSVAATDINGDDYADVFIGAPLFMDRGSDGKLQEVGQVSVSLQRASGDFQTTKLNGFEVFARFGSAIAPLGDLDQDGFNDIAIAAPYGGEDKKGIVYIFNGRSTGLNAVPSQILEGQWAARSMPPSFGYSMKGATDIDKNGYPDLIVGAFGVDRAILYRARPVITVNAGLEVYPSILNQDNKTCSLPGTALKVSCFNVRFCLKADGKGVLPRKLNFQVELLLDKLKQKGAIRRALFLYSRSPSHSKNMTISRGGLMQCEELIAYLRDESEFRDKLTPITIFMEYRLDYRTAADTTGLQPILNQFTPANISRQAHILLDCGEDNVCKPKLEVSVDSDQKKIYIGDDNPLTLIVKAQNQGEGAYEAELIVSIPLQADFIGVVRNNEALARLSCAFKTENQTRQVVCDLGNPMKAGTQLLAGLRFSVHQQSEMDTSVKFDLQIQSSNLFDKVSPVVSHKVDLAVLAAVEIRGVSSPDHVFLPIPNWEHKENPETEEDVGPVVQHIYELRNNGPSSFSKAMLHLQWPYKYNNNTLLYILHYDIDGPMNCTSDMEINPLRIKISSLQTTEKNDTVAGQGERDHLITKRDLALSEGDIHTLGCGVAQCLKIVCQVGRLDRGKSAILYVKSLLWTETFMNKENQNHSYSLKSSASFNVIEFPYKNLPIEDITNSTLVTTNVTWGIQPAPMPV
chain 2: GPNICTTRGVSSCQQCLAVSPMCAWCSDEALPLGSPRCDLKENLLKDNCAPESIEFPVSEARVLEDRPLSDKGSGDSSQVTQVSPQRIALRLRPDDSKNFSIQVRQVEDYPVDIYYLMDLSYSMKDDLWSIQNLGTKLATQMRKLTSNLRIGFGAFVDKPVSPYMYISPPEALENPCYDMKTTCLPMFGYKHVLTLTDQVTRFNEEVKKQSVSRNRDAPEGGFDAIMQATVCDEKIGWRNDASHLLVFTTDAKTHIALDGRLAGIVQPNDGQCHVGSDNHYSASTTMDYPSLGLMTEKLSQKNINLIFAVTENVVNLYQNYSELIPGTTVGVLSMDSSNVLQLIVDAYGKIRSKVELEVRDLPEELSLSFNATCLNNEVIPGLKSCMGLKIGDTVSFSIEAKVRGCPQEKEKSFTIKPVGFKDSLIVQVTFDCDCACQAQAEPNSHRCNNGNGTFECGVCRCGPGWLGSQCECSEEDYRPSQQDECSPREGQPVCSQRGECLCGQCVCHSSDFGKITGKYCECDDFSCVRYKGEMCSGHGQCSCGDCLCDSDWTGYYCNCTTRTDTCMSSNGLLCSGRGKCECGSCVCIQPGSYGDTCEKCPTCPDACTFKKECVECKKFDRGALHDENTCNRYCRDEIESVKELKDTGKDAVNCTYKNEDDCVVRFQYYEDSSGKSILYVVEEPECPKGPD
